This assay has as its target Canine IL-31RA ECD-10His (canine). The assay is described as follows: ELISA, IL-31RA coated at 1 ug/mL, biotinylated IL-31 titrated, HRP-streptavidin.

This is an account of results in US20250340654A1.

Sequence of Canine IL-31RA ECD-10His (canine) (chain, as listed by the source limits assumed): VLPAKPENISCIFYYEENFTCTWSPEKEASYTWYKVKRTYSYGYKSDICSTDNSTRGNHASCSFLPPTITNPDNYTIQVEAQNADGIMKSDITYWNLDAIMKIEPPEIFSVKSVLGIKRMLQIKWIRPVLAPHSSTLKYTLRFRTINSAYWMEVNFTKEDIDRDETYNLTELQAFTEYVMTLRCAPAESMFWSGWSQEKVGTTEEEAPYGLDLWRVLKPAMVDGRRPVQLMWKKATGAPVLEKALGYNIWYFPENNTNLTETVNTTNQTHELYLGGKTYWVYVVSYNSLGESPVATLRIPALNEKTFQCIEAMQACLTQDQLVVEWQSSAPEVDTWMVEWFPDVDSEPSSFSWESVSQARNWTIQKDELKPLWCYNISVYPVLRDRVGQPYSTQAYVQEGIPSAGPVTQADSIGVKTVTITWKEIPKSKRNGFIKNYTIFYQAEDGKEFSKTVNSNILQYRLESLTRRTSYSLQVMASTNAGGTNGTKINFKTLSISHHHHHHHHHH

The substance biotinylated canine IL-31 (ligand) came in with an EC50 of 0.55 ng/mL.

One may read the EC50 as the concentration needed to bring the measured effect to its halfway point. Low values mean higher potency in that assay, high ones lower potency in that assay.
